Laboratory results reported in PMC2114503.
Like-named read-outs stand apart in the source and are kept apart here.

Legend:
Assay in all cases: co-sedimentation
[1] = molecular target: rabbit skeletal muscle actin (rabbit) (UniProt P68135); conditions: scale: molecules of actin per molecule of the 30,000-D protein
[2] = molecular target: rabbit skeletal muscle actin (rabbit) (UniProt P68135)
[3] = molecular target: rabbit skeletal muscle actin (rabbit) (UniProt P68135); remark: listed apart in the source
[4] = molecular target: rabbit skeletal muscle actin (rabbit) (UniProt P68135); remark: listed apart in the source
[5] = molecular target: rabbit skeletal muscle actin (rabbit) (UniProt P68135); remark: listed apart in the source

stoichiometry N [1]: 10.3
fraction of the 30,000-D protein co-sedimenting with actin [2]: 29%
fraction of the 30,000-D protein co-sedimenting with actin [3]: 14%
fraction of the 30,000-D protein co-sedimenting with actin [4]: 99%
stoichiometry N ([4]; scale: molecules of actin per molecule of the 30,000-D protein): 9.5
fraction of the 30,000-D protein co-sedimenting with actin [5]: 73%
Substance: Dictyostelium discoideum 30,000-D actin-binding protein (natural protein)
